# According to US20260274933A1 (Innovent, published 2026):
# B1: LA42F8.5 (VHH)
# VHH: EVQLLESGGGLVQPGGSLRLSCAASGFNLDYYPIGWFRQAPGKGLEGVSCISSVGSTNYADSVKGRFTISRDNSKNTVYLQMNSLRAEDTAVYYCAADPLCSALILPPPFLSWGQGTQVTVSS
# notes: also called humanized LA42F8
# B2: IEX04-008 (bispecific antibody)
# chain: EVQLLESGGGLVQPGGSLRLSCAASGSIFSINAMGWHRQAPGKQRELVATMIGGSSTFYAESVQGRFTISRDNSKNTVYLQMNSLRAEDTAVYYCYADVTGRSGTSIWNKRDDYWGQGTQVTVSSGGGGSGGGGSEVQLLESGGGLVQPGGSLRLSCAASGSIFSINAMGWHRQAPGKQRELVATMIGGSSTFYAESVQGRFTISRDNSKNTVYLQMNSLRAEDTAVYYCYADVTGRSGTSIWNKRDDYWGQGTQVTVSSGGGGSGGGGSEVQLLESGGGLVQPGGSLRLSCAASGFALDYYAIGWFRQAPGKGLEGVSCISSGEGSTYYADSVKGRFTISRDNSKNTVYLQMNSLRAEDTAVYYCATDSRGDDVACEGLRRNEYDYWGQGTLVTVSS
# notes: also called LA46E11.8 (VHH) + linker + LA46E11.8 (VHH) + LA24C11.10
# B3: IgG (antibody, V domains shown)
# VH: EVRLLESGGGLVQPGGSLRLSCAASGFTFSNYAMGWVRQAPGKGLEWVSAISGSGGSTYYADSVKGRFTTSRDDSKNALYLQMNSLRAEDTAVYYCARGGPGWYAADVWGQGTTVTVSS
# VL: DIQMTQSPSSLSASVGDRVTITCRASQSISSYLNWYQQKPGKAPKLLIYAASSLQSGVPSRFSGSGSGTDFTLTISSLQPEDFATYYCQQADLPAFAFGGGTKVEIKR
# notes: also called Negative control IgG
# B4: IEX04-012 (bispecific antibody)
# chain: DIQLTQSPSSLSASVGDRVTITCSASQDISNYLNWYQQKPGKAPKVLIYFTSSLHSGVPSRFSGSGSGTDFTLTISSLQPEDFATYYCQQYSTVPWTFGCGTKVEIKGGGGSGGGGSGGGGSGGGGSEVQLVESGGGLVQPGGSLRLSCAASGYDFTHYGMNWVRQAPGKCLEWVGWINTYTGEPTYAADFKRRFTFSLDTSKSTAYLQMNSLRAEDTAVYYCAKYPYYYGTSHWYFDVWGQGTLVTVSSGGGGSGGGGSGGGGSEVQLLESGGGLVQPGGSLRLSCAASGFALDYYAIGWFRQAPGKGLEGVSCISSGEGSTYYADSVKGRFTISRDNSKNTVYLQMNSLRAEDTAVYYCATDSRGDDVACEGLRRNEYDYWGQGTLVTVSS
# notes: also called Ranibizumab scFv containing disulfide bond mutations + linker + LA24C11.10; recombinant anti-VEGF A/anti-Ang2 bispecific antibody
# B5: LA46E11 (VEGFA VHH) (VHH)
# VHH: QVQLEESGGGLVQPGGSLRLSCVASGSIFSINAMGWHRQAPGSQRELVATMIGGSSTFYADSVNGRFTISRDNAKNTVYLQMNSLKLEDTAVYYCYADVTGRSGTSIWNKRDDYWGQGTLVTVSS
# notes: Alpaca anti-VEGF A VHH; also called LA46E11 supernatant
# B6: LA46E11.8 (VEGFA VHH) (VHH)
# VHH: EVQLLESGGGLVQPGGSLRLSCAASGSIFSINAMGWHRQAPGKQRELVATMIGGSSTFYAESVQGRFTISRDNSKNTVYLQMNSLRAEDTAVYYCYADVTGRSGTSIWNKRDDYWGQGTQVTVSS
# notes: Humanized anti-VEGF A VHH; also called humanized LA46E11
# B7: BI-anti-VEGF (VHH)
# VHH: DVQLVESGGGLVQPGGSLRLSCAASGRTFSSYSMGWFRQAPGKEREFVVAISKGGYKYDAVSLEGRFTISRDNAKNTVYLQINSLRPEDTAVYYCASSRAYGSSRLRLADTYEYWGQGTLVTVSS
# notes: also called Positive control antibody BI-anti-VEGF
# B8: LA24C11 (Ang2 VHH) (VHH)
# VHH: QVQLVESGGGLVQPGGSLRLSCAASGFALDYYAIGWFRQAPGKEREGVSCISSGDGSTYYADSVKGRFTISRDNAKNTVYLQMNSLKPEDTAVYYCATDSRGDDVACEGLRRNEYDYWGQGTQVTVSS
# notes: Alpaca anti-Ang2 VHH
# B9: LA24C11.10 (Ang2 VHH) (VHH)
# VHH: EVQLLESGGGLVQPGGSLRLSCAASGFALDYYAIGWFRQAPGKGLEGVSCISSGEGSTYYADSVKGRFTISRDNSKNTVYLQMNSLRAEDTAVYYCATDSRGDDVACEGLRRNEYDYWGQGTLVTVSS
# notes: Humanized anti-Ang2 VHH; also called hz24C11.10; LA24C11.0
# Experiments:
# [1] = biological target: T1, human VEGF165 (R&D) (human, UniProt P15692-4 27-191); assay: BLI (ForteBio), bivalent binding
# T1 construct: Antigen of the ForteBio assay
# T1 sequence (P15692 other isoform, or with tags, fused parts or gaps limits assumed): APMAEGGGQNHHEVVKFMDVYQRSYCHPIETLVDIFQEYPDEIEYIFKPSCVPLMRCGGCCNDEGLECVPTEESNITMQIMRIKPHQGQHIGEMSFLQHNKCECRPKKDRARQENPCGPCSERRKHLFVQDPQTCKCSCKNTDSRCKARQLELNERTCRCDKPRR
# [2] = biological target: T2, hAng2-Fc (Beijing Sino Biological, Catalog No. 10691-H02H) (human, UniProt O15123 19-496); assay: flow cytometry blocking: binding of hAng2-Fc to Tie2 on 293-Tie2 cells blocked, Mean PE-A; unit from the axis
# T2 construct: Bought fusion protein; also called human Ang2-hFc; recombinant hAng2-Fc protein; not shown: human Fc of the bought fusion protein
# T2 sequence (looked up): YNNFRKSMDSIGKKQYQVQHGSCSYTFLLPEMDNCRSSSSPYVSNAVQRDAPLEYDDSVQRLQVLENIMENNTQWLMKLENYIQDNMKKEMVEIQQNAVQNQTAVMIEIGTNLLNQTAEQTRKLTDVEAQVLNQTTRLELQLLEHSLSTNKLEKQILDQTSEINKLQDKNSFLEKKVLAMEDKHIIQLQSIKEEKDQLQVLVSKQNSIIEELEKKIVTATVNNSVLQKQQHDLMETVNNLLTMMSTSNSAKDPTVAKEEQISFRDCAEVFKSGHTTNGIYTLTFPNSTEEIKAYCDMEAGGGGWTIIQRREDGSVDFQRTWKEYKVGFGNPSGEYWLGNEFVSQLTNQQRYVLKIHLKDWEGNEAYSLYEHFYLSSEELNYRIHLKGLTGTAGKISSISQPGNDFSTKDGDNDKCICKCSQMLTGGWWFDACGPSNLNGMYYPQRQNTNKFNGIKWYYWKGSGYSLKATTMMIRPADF
# Method: (§1) The cells were centrifuged at 300 g for 5 min. The supernatant was discarded. Then the cells were resuspended in an antigen-antibody mixture. The mixture was incubated on ice for 30 min. PBS was added at 100 μL/well. After centrifugation at 300 g for 5 min, the mixture was washed once with PBS. 100 μL of goat anti-human IgG-PE (SouthernBiotech) diluted in a 1:200 ratio was added to each well. After a 20-min ice bath, PBS was added at 100 μL/well. The mixture was centrifuged at 300 g for 5 min, prior to one wash with PBS. The cells were resuspended with 100 μL of PBS. The cell fluorescence signal values were measured by a flow cytometer (BD Biosciences). According to MFI, the concentration-dependent curve was fitted with GraphPad.
# [3] = biological target: T3, hAng2-biotin (R&D, Catalog No. BT623B/CF) (human, UniProt O15123 68-496, limits assumed, biotinylated); assay: blocking ELISA: hTie2 coated, binding of biotinylated hAng2 blocked; unit from the axis
# T3 construct: also called Ang2-Bio (R&D, Catalog No. BT623B/CF); Recombinant Biotinylated hAngiopoietin-2 protein (R&D)
# T3 sequence (looked up): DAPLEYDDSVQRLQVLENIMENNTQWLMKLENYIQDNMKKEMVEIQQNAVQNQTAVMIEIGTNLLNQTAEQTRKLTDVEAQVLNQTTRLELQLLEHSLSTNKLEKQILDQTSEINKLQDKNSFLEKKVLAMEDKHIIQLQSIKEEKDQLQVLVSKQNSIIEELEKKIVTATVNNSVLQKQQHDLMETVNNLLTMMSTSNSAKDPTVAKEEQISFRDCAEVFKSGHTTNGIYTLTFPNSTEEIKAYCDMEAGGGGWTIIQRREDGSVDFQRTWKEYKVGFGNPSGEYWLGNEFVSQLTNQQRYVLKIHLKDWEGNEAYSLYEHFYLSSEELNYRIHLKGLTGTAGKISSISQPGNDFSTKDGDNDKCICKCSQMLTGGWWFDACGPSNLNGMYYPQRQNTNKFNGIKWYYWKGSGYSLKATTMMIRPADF
# Method: (§2) The antigen-antibody mixture obtained as described above was incubated in the microplate for 90 min and washed three times with PBS, and the supernatant was discarded. 100 μL of Avidin-HRP (Invitrogen) diluted in a 1:10000 ratio was added to each well, incubated at room temperature for 30 min, and washed six times with PBS. A TMB chromogenic solution (solarbio) was added to the plate at 100 μL/well for color development for 1 min, and the reaction was stopped by adding a stop solution (Solarbio) at 100 μL/well.
# [4] = biological target: T3, hAng2-biotin (R&D, Catalog No. …); assay: blocking ELISA: hTie2 coated, binding of biotinylated hAng2; fit value printed for the flat curve of the negative control, unit from the axis
# Method: as §2
# [5] = biological target: T2, hAng2-Fc (Beijing Sino Biological, …); assay: flow cytometry blocking: binding of hAng2-Fc to Tie2 on 293-Tie2 cells, Mean-PE-A; fit value printed for the flat curve of the negative control, unit from the axis
# Method: as §1
# [6] = biological target: T4, biotin-labeled VEGF A165 (ACRO, Catalog No. VE5-H8210) (human, UniProt P15692-4 27-191, biotin-labeled); assay: blocking ELISA: biotin VEGF A165 captured on streptavidin, binding of VEGFR-Fc; fit value printed for the flat curve of the negative control, unit from the axis
# T4 construct: also called hVEGF A
# T4 sequence (P15692 other isoform, or with tags, fused parts or gaps limits assumed): as the sequence (P15692 other isoform, or with tags, fused parts or gaps limits assumed) above
# Method: (§3) SA (Thermo, Catalog No. 21125) was diluted to 1 μg/mL, and 100 μL/well of SA was plated in a microplate at 4° C. overnight. The plate was washed 3 times with PBST and blocked with 3% BSA for 1.5 h. […] The plate was washed 6 times with PBST, the color development was performed with TMB for 5 min, and OD450 nm was read after stopping.
# [7] = biological target: T3, hAng2-biotin (R&D, Catalog No. …); assay: blocking ELISA: hTie2 coated, binding of biotinylated hAng2; fit value printed for the flat curve of the negative control, unit from the axis; remark: listed apart in the source
# Method: as §2
# [8] = biological target: T2, hAng2-Fc (Beijing Sino Biological, …); assay: flow cytometry blocking: binding of hAng2-Fc to Tie2 on 293-Tie2 cells, Mean PE-A; fit value printed for the flat curve of the negative control, unit from the axis
# Method: as §1
# [9] = biological target: T2, hAng2-Fc (Beijing Sino Biological, …); assay: flow cytometry blocking: binding of hAng2-Fc to Tie2 on 293-Tie2 cells blocked, Mean-PE-A; unit from the axis
# Method: as §1
# [10] = biological target: T1, human VEGF165 (R&D); assay: BLI (ForteBio), monovalent binding
# [11] = biological target: T4, biotin-labeled VEGF A165 (ACRO, Catalog …); assay: blocking ELISA: biotin VEGF A165 captured on streptavidin, binding of VEGFR-Fc blocked; value printed as EC50 in the table under the curves, unit from the axis
# Method: as §3
# [12] = biological target: T5, human Ang2 (human, UniProt O15123 19-496, limits assumed); assay: BLI (ForteBio), bivalent binding; * dissociation constant exceeding ForteBio detection limits
# T5 construct: Antigen of the ForteBio assay; also called human Ang2 (Beijing Sino Biological)
# T5 sequence (looked up): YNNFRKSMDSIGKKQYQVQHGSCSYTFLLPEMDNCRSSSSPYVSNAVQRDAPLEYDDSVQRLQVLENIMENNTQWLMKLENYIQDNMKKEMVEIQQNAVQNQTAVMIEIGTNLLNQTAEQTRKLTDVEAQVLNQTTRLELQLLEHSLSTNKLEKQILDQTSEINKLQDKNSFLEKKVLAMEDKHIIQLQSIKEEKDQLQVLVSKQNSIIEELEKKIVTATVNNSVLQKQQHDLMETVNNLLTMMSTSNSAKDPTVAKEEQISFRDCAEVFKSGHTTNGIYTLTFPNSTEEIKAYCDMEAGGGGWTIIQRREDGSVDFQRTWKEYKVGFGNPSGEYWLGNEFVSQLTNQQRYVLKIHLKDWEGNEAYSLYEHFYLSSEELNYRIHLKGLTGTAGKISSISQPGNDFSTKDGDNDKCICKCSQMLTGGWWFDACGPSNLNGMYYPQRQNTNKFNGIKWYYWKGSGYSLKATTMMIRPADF
# [13] = biological target: T5, human Ang2; assay: BLI (ForteBio), monovalent binding
# [14] = biological target: T5, human Ang2; assay: BLI (ForteBio), bivalent binding
# [15] = biological target: T3, hAng2-biotin (R&D, Catalog No. …); assay: blocking ELISA: Tie2-Fc coated, binding of hAng2-biotin blocked
# Method: The plate was washed 3 times with PBST and blocked with 3% BSA for 1.5 h. […] The plate was washed 3 times with PBST, Avidin HRP (1:2000) was added, and the plate was incubated for 35 min. The plate was washed 6 times with PBST, the color development was performed with TMB for 5 min, and OD450 nm was read after stopping.
binder,measurement,setting,value
B1,Kd,[1],0.2 nM
same,koff,[1],0.000213 s⁻¹
same,kon,[1],1.06e+06 M⁻¹ s⁻¹
B2,IC50,[2],0.554 nM
same,IC50,[3],13.5 nM
B3,IC50,[4],~6.79 nM
same,IC50,[5],~10.1 nM
same,EC50,[6],2.08 ng/mL
same,IC50,[7],~0.596 nM
same,IC50,[8],~0.019 nM
B4,IC50,[9],0.685 nM
same,IC50,[3],7.1 nM
B5,Kd,[10],7.74 nM
same,koff,[10],0.00142 s⁻¹
same,kon,[10],184000 M⁻¹ s⁻¹
same,Kd,[1],1.11 nM
same,koff,[1],0.0002 s⁻¹
same,kon,[1],179000 M⁻¹ s⁻¹
same,EC50,[11],0.344 µg/mL
B6,Kd,[1],0.788 nM
same,koff,[1],0.000332 s⁻¹
same,kon,[1],421000 M⁻¹ s⁻¹
B7,EC50,[11],0.034 µg/mL
B8,koff,[12],≤ 0.0002 s⁻¹
same,Kd,[13],2.18 nM
same,koff,[13],0.00166 s⁻¹
same,kon,[13],761000 M⁻¹ s⁻¹
same,Kd,[14],0.867 nM
same,kon,[14],231000 M⁻¹ s⁻¹
B9,koff,[12],≤ 0.0002 s⁻¹
same,Kd,[14],≤ 0.828 nM
same,kon,[14],242000 M⁻¹ s⁻¹
same,IC50 (read off the curve),[15],~0.06 µg/mL
